Measured values: PMC5591277

Assays:
[1] = target: T1, Lhp1 (yeast La protein) (Saccharomyces cerevisiae) (UniProt P33399); test: EMSA; settings: Bmax 75%, 2',3'-cis-diol end, EMSA: 5 nM Cy3-U6, 100 mM KCl, 20% sucrose, 20 mM bis-tris/10 mM HCl, 1 mM EDTA, 1 mM TCEP, 0.01% Triton X-100, 0.1 mg/mL tRNA, 0.01 mg/mL heparin
T1 sequence: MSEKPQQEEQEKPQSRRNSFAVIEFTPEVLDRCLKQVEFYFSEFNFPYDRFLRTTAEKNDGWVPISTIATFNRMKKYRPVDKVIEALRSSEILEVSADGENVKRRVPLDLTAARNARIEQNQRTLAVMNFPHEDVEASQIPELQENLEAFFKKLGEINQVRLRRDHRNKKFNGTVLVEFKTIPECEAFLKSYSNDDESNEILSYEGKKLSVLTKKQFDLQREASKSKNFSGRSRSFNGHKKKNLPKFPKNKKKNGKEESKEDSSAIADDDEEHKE

[2] = target: T2, Lsm2-8 complex (Saccharomyces cerevisiae) (UniProt P38203+P57743+P40070+P40089+Q06406+P53905+P47093); test: EMSA; settings: Bmax 100%, EMSA: 5 nM Cy3-U6, 100 mM KCl, 20% sucrose, 20 mM bis-tris/10 mM HCl, 1 mM EDTA, 1 mM TCEP, 0.01% Triton X-100, 0.1 mg/mL tRNA, 0.01 mg/mL heparin
T2 sequence 1: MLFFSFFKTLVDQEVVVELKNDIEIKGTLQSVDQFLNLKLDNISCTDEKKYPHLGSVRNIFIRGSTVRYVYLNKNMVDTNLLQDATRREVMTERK
T2 sequence 2: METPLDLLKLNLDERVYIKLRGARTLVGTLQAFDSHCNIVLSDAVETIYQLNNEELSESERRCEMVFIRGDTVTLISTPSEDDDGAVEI
T2 sequence 3: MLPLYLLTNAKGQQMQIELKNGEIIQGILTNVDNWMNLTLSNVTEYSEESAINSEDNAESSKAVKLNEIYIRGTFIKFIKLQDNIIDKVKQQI
T2 sequence 4: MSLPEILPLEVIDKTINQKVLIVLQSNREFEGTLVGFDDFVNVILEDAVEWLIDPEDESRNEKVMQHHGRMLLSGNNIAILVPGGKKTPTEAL
T2 sequence 5: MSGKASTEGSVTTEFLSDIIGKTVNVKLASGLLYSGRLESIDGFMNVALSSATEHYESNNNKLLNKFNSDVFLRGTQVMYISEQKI
T2 sequence 6: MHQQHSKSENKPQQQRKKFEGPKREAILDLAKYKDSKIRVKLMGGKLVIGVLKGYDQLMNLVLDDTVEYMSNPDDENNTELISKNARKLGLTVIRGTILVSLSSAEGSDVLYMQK
T2 sequence 7: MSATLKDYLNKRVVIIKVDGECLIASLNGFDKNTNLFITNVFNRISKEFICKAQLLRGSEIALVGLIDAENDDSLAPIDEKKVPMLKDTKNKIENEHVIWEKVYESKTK

| Substance | Kd [1] [nM] | Kd ([2]; 2',3'-cis-diol end) [nM] | Kd ([2]; 2',3'-cyclic phosphate) [nM] |
| --- | --- | --- | --- |
| U6 1-112+1U 3'OH | 12 | 30 |  |
| U6 1-112 3'OH | 18 | 210 |  |
| U6 1-112+1U>p |  |  | 70 |
